Data: paper PMC6753376 (Molecular Systems Biology, 2019)

T1: Mcm2 (S. cerevisiae, UniProt P29469 1-868)
T1 construct: Mcm2, S. cerevisiae, subunit of MCM2-7 in the OCCM complex; the search database held all 14 OCCM subunits; source: in the OCCM complex assembled on pUC19-ARS1 beads as described elsewhere (Evrin et al, 2009)
T1 sequence (looked up): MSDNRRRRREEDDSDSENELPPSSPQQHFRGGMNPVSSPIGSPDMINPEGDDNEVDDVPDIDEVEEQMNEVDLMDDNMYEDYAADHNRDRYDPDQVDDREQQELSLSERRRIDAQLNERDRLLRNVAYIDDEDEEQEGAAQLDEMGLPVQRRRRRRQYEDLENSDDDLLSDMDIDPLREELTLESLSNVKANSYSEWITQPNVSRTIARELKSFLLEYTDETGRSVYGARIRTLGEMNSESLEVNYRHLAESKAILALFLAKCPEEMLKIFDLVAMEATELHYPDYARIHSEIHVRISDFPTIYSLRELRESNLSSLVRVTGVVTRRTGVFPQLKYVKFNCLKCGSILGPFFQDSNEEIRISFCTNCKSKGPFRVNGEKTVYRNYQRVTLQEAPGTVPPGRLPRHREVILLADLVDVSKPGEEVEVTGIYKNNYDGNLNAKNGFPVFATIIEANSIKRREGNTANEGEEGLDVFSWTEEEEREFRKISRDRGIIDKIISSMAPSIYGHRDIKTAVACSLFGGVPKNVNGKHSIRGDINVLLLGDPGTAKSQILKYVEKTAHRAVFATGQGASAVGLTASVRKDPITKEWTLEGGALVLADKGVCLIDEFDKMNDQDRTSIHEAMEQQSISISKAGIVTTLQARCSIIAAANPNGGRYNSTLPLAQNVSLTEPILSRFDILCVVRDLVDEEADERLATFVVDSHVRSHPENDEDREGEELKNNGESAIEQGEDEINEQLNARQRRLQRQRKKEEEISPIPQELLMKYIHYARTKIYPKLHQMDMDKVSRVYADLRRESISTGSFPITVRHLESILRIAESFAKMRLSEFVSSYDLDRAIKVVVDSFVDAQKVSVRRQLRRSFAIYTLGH


Legend:
C3b (human) = C3b (human) (UniProt P01024); assay: cross-linking; quantitative cross-linking mass spectrometry (QCLMS) of C3b alone; C3b monomer and dimer labelled as in Chen et al, 2016c, in-gel digested with trypsin, then sequential digestion
Mcm6 = molecular target: T2, Mcm6 (S. cerevisiae, UniProt P53091 1-1017); assay: cross-linking; BS3 cross-linking of 200 ug OCCM complex on pUC19-ARS1 beads, 1:8,100 protein to crosslinker molar ratio, 2 h on ice; sequential digestion, SEC, LC-MS/MS, xiSEARCH, 5% FDR; conditions: both partners purified
T2 construct: Mcm6, S. cerevisiae, subunit of MCM2-7 in the OCCM complex; source: in the OCCM complex assembled on pUC19-ARS1 beads as described elsewhere (Evrin et al, 2009)

Mcm2 = molecular target: T1, Mcm2; assay: as above; conditions: both partners purified

T2 sequence (P53091 whole entry): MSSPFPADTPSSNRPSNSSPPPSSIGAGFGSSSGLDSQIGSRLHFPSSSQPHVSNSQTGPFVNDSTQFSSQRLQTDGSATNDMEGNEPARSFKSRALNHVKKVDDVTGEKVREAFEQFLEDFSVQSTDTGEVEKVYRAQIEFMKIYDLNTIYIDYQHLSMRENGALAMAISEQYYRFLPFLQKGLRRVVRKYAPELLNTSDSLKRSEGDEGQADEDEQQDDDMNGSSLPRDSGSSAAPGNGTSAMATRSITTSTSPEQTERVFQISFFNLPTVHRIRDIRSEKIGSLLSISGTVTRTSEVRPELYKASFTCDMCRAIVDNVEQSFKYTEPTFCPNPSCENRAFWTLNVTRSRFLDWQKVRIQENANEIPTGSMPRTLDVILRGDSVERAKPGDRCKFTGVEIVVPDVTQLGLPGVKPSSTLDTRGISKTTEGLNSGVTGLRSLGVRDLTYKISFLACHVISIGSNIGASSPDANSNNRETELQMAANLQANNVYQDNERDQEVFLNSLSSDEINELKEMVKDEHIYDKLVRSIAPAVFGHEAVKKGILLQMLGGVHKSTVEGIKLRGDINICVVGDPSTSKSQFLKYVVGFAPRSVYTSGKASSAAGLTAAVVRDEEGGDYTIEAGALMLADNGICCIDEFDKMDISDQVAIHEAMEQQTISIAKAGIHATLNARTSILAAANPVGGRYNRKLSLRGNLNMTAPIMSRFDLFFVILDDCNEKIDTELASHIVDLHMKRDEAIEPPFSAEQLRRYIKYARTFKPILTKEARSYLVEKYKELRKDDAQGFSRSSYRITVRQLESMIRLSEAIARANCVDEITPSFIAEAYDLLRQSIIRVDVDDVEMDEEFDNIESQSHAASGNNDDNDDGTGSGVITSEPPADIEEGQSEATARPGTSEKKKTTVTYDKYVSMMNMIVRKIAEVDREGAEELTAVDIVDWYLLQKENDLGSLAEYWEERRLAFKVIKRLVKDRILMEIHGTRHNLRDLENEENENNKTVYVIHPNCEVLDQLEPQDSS
Sequence of C3b (P01024 23-1663): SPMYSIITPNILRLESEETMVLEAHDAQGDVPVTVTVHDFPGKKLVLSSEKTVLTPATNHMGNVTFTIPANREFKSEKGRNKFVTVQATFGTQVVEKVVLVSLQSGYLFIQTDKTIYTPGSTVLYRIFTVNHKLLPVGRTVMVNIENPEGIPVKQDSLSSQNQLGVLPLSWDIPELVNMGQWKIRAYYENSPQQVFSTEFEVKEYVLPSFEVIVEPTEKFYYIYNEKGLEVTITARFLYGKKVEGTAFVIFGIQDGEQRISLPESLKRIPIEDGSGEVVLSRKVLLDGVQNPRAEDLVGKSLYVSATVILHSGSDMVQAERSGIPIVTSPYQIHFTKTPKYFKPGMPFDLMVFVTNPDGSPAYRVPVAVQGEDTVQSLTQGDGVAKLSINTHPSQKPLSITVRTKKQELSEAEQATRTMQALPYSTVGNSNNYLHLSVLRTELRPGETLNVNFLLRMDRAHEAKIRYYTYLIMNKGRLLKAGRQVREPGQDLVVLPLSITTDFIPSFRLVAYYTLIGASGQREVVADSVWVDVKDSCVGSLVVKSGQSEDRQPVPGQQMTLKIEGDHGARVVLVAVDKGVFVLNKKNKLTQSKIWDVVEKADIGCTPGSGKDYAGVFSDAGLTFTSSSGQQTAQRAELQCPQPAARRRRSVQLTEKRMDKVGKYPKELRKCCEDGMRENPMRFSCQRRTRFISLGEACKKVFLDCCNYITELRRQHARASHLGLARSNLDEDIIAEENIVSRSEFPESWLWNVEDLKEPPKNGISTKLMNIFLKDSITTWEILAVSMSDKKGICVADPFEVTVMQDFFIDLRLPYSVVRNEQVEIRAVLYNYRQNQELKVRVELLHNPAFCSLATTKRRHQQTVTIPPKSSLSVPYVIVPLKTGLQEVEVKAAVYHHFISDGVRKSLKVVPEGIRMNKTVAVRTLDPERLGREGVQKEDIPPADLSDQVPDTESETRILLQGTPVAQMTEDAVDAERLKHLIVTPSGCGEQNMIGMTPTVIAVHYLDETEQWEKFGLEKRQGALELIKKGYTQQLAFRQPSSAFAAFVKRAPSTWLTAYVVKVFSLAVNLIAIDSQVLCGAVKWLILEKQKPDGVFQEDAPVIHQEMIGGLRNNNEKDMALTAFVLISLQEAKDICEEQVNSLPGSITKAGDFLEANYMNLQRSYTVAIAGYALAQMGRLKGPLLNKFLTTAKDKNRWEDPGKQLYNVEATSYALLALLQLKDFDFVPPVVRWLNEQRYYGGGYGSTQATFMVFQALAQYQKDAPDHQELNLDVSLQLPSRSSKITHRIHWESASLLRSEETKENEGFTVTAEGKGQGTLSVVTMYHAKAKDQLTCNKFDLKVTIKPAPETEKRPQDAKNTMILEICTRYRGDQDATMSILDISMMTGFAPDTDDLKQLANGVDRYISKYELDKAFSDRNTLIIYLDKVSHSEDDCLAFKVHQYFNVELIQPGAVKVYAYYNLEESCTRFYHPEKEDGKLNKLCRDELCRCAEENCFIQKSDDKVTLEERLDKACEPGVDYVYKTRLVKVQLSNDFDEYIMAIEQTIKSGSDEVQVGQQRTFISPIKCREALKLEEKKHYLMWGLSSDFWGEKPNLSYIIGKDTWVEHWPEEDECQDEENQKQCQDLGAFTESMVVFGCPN

| Molecule | binding result (Mcm2) | also measured |
| --- | --- | --- |
| C3b (from UniProt P01024 749-1663; P01024 749-1663) (natural protein) |  | stoichiometry N (C3b (human)): 2 |
| Cdt1 (natural protein, S. cerevisiae, UniProt P47112 1-604, looked up, Cdt1, S. cerevisiae, subunit of the OCCM complex; source: in the OCCM complex assembled on pUC19-ARS1 beads as described elsewhere (Evrin et al, 2009)) MSGTANSRRKEVLRVPVIDLNRVSDEEQLLPVVRAILLQHDTFLLKNYANKAVLDALLAGLTTKDLPDTSQGFDANFTGTLPLEDDVWLEQYIFDTDPQLRFDRKCRNESLCSIYSRLFKLGLFFAQLCVKSVVSSAELQDCISTSHYATKLTRYFNDNGSTHDGADAGATVLPTGDDFQYLFERDYVTFLPTGVLTIFPCAKAIRYKPSTMATTDNSWVSIDEPDCLLFHTGTLLARWSQGMHTTSPLQIDPRANIVSLTIWPPLTTPISSKGEGTIANHLLEQQIKAFPKVAQQYYPRELSILRLQDAMKFVKELFTVCETVLSLNALSRSTGVPPELHVLLPQISSMMKRKIVQDDILKLLTIWSDAYVVELNSRGELTMNLPKRDNLTTLTNKSRTLAFVERAESWYQQVIASKDEIMTDVPAFKINKRRSSSNSKTVLSSKVQTKSSNANALNNSRYLANSKENFMYKEKMPDSQANLMDRLRERERRSAALLSQRQKRYQQFLAMKMTQVFDILFSLTRGQPYTETYLSSLIVDSLQDSNNPIGTKEASEILAGLQGILPMDISVHQVDGGLKVYRWNSLDKNRFSKLLQIHKSKQQD |  | binding result (Mcm6): binds |
| Orc5 (natural protein, S. cerevisiae, UniProt P50874 1-479, looked up, Orc5, S. cerevisiae, subunit of ORC in the OCCM complex; source: in the OCCM complex assembled on pUC19-ARS1 beads as described elsewhere (Evrin et al, 2009)) MNVTTPEVAFREYQTNCLASYISADPDITPSNLILQGYSGTGKTYTLKKYFNANPNLHAVWLEPVELVSWKPLLQAIARTVQYKLKTLYPNIPTTDYDPLQVEEPFLLVKTLHNIFVQYESLQEKTCLFLILDGFDSLQDLDAALFNKYIKLNELLPKDSKINIKFIYTMLETSFLQRYSTHCIPTVMFPRYNVDEVSTILVMSRCGELMEDSCLRKRIIEEQITDCTDDQFQNVAANFIHLIVQAFHSYTGNDIFALNDLIDFKWPKYVSRITKENIFEPLALYKSAIKLFLSTDDNLSENGQGESAITTNRDDLENSQTYDLSIISKYLLIASYICSYLEPRYDASIFSRKTRIIQGRAAYGRRKKKEVNPRYLQPSLFAIERLLAIFQAIFPIQGKAESGSLSALREESLMKANIEVFQNLSELHTLKLIATTMNKNIDYLSPKVRWKVNVPWEIIKEISESVHFNISDYFSDIHE | binds |  |
| Orc2 (natural protein, S. cerevisiae, UniProt P32833 1-620, looked up, Orc2, S. cerevisiae, subunit of ORC in the OCCM complex; source: in the OCCM complex assembled on pUC19-ARS1 beads as described elsewhere (Evrin et al, 2009)) MLNGEDFVEHNDILSSPAKSRNVTPKRVDPHGERQLRRIHSSKKNLLERISLVGNERKNTSPDPALKPKTPSKAPRKRGRPRKIQEELTDRIKKDEKDTISSKKKRKLDKDTSGNVNEESKTSNNKQVMEKTGIKEKREREKIQVATTTYEDNVTPQTDDNFVSNSPEPPEPATPSKKSLTTNHDFTSPLKQIIMNNLKEYKDSTSPGKLTLSRNFTPTPVPKNKKLYQTSETKSASSFLDTFEGYFDQRKIVRTNAKSRHTMSMAPDVTREEFSLVSNFFNENFQKRPRQKLFEIQKKMFPQYWFELTQGFSLLFYGVGSKRNFLEEFAIDYLSPKIAYSQLAYENELQQNKPVNSIPCLILNGYNPSCNYRDVFKEITDLLVPAELTRSETKYWGNHVILQIQKMIDFYKNQPLDIKLILVVHNLDGPSIRKNTFQTMLSFLSVIRQIAIVASTDHIYAPLLWDNMKAQNYNFVFHDISNFEPSTVESTFQDVMKMGKSDTSSGAEGAKYVLQSLTVNSKKMYKLLIETQMQNMGNLSANTGPKRGTQRTGVELKLFNHLCAADFIASNEIALRSMLREFIEHKMANITKNNSGMEIIWVPYTYAELEKLLKTVLNTL | binds |  |
